# According to US20120316071A1 (published 2012):
# B1: Fab VH1-46_IGHD6-6*01_IGHJ1*01 S102A/S103P/S104F/H111F S54Q & L6_IGKJ1*01 (Fab, V domains shown)
# VH: QVQLVQSGAEVKKPGASVKVSCKASGYTFTSYYMHWVRQAPGQGLEWMGIINPQGGSTSYAQKFQGRVTMTRDTSTSTVYMELSSLRSEDTAVYYCAREEYAPFSAEYFQFWGQGTLVTVSS
# VL: not shown
# notes: Fab made in E. coli; also called APFF S54Q
# B2: Fab VH1-46_IGHD6-6*01_IGHJ1*01 S102A/S103P/S104F/H111F S54R & L6_IGKJ1*01 (Fab, V domains shown)
# VH: QVQLVQSGAEVKKPGASVKVSCKASGYTFTSYYMHWVRQAPGQGLEWMGIINPRGGSTSYAQKFQGRVTMTRDTSTSTVYMELSSLRSEDTAVYYCAREEYAPFSAEYFQFWGQGTLVTVSS
# VL: not shown
# notes: Fab made in E. coli; CH1 with tags and kappa CL are not included; also called APFF S54R
# B3: Fab VH1-46_IGHD6-6*01_IGHJ1*01 S102A/S103P/S104F/H111F S54V & L6_IGKJ1*01 (Fab, V domains shown)
# VH: QVQLVQSGAEVKKPGASVKVSCKASGYTFTSYYMHWVRQAPGQGLEWMGIINPVGGSTSYAQKFQGRVTMTRDTSTSTVYMELSSLRSEDTAVYYCAREEYAPFSAEYFQFWGQGTLVTVSS
# VL: not shown
# notes: Fab made in E. coli; CH1 with tags and kappa CL are not included; also called APFF S54V
# B4: Fab VH1-46_IGHD6-6*01_IGHJ1*01 S102A/S103P/S104F/H111F (APFF) & L6_IGKJ1*01 S28N (Fab, V domains shown)
# VH: QVQLVQSGAEVKKPGASVKVSCKASGYTFTSYYMHWVRQAPGQGLEWMGIINPSGGSTSYAQKFQGRVTMTRDTSTSTVYMELSSLRSEDTAVYYCAREEYAPFSAEYFQFWGQGTLVTVSS
# VL: EIVLTQSPATLSLSPGERATLSCRASQNVSSYLAWYQQKPGQAPRLLIYDASNRATGIPARFSGSGSGTDFTLTISSLEPEDFAVYYCQQRSNWPPWTFGQGTKVEIKR
# notes: Fab; VH cloned into Plasmid A (CH1, His6 and Flag tags) and VL into Plasmid C (kappa CL); also called APFF / S28N
# B5: Fab VH1-46_IGHD6-6*01_IGHJ1*01 S102A/S103P/S104F/H111F (APFF) & L6_IGKJ1*01 S28E (Fab, V domains shown)
# VH: QVQLVQSGAEVKKPGASVKVSCKASGYTFTSYYMHWVRQAPGQGLEWMGIINPSGGSTSYAQKFQGRVTMTRDTSTSTVYMELSSLRSEDTAVYYCAREEYAPFSAEYFQFWGQGTLVTVSS
# VL: EIVLTQSPATLSLSPGERATLSCRASQEVSSYLAWYQQKPGQAPRLLIYDASNRATGIPARFSGSGSGTDFTLTISSLEPEDFAVYYCQQRSNWPPWTFGQGTKVEIKR
# notes: Fab; VH cloned into Plasmid A (CH1, His6 and Flag tags) and VL into Plasmid C (kappa CL); also called APFF / S28E
# B6: Fab VH1-46_IGHD6-6*01_IGHJ1*01 S102A/S103P/S104F/H111F (APFF) & L6_IGKJ1*01 S28H (Fab, V domains shown)
# VH: QVQLVQSGAEVKKPGASVKVSCKASGYTFTSYYMHWVRQAPGQGLEWMGIINPSGGSTSYAQKFQGRVTMTRDTSTSTVYMELSSLRSEDTAVYYCAREEYAPFSAEYFQFWGQGTLVTVSS
# VL: EIVLTQSPATLSLSPGERATLSCRASQHVSSYLAWYQQKPGQAPRLLIYDASNRATGIPARFSGSGSGTDFTLTISSLEPEDFAVYYCQQRSNWPPWTFGQGTKVEIKR
# notes: Fab; VH cloned into Plasmid A (CH1, His6 and Flag tags) and VL into Plasmid C (kappa CL); also called APFF / S28H
# B7: Fab VH1-46_IGHD6-6*01_IGHJ1*01 S102A/S103P/S104F/H111F (APFF) & L6_IGKJ1*01 S28I (Fab, V domains shown)
# VH: QVQLVQSGAEVKKPGASVKVSCKASGYTFTSYYMHWVRQAPGQGLEWMGIINPSGGSTSYAQKFQGRVTMTRDTSTSTVYMELSSLRSEDTAVYYCAREEYAPFSAEYFQFWGQGTLVTVSS
# VL: EIVLTQSPATLSLSPGERATLSCRASQIVSSYLAWYQQKPGQAPRLLIYDASNRATGIPARFSGSGSGTDFTLTISSLEPEDFAVYYCQQRSNWPPWTFGQGTKVEIKR
# notes: Fab; VH cloned into Plasmid A (CH1, His6 and Flag tags) and VL into Plasmid C (kappa CL); also called APFF / S28I
# B8: Fab VH1-46_IGHD6-6*01_IGHJ1*01 S102A/S103P/S104F/H111F (APFF) & L6_IGKJ1*01 S28M (Fab, V domains shown)
# VH: QVQLVQSGAEVKKPGASVKVSCKASGYTFTSYYMHWVRQAPGQGLEWMGIINPSGGSTSYAQKFQGRVTMTRDTSTSTVYMELSSLRSEDTAVYYCAREEYAPFSAEYFQFWGQGTLVTVSS
# VL: EIVLTQSPATLSLSPGERATLSCRASQMVSSYLAWYQQKPGQAPRLLIYDASNRATGIPARFSGSGSGTDFTLTISSLEPEDFAVYYCQQRSNWPPWTFGQGTKVEIKR
# notes: Fab; VH cloned into Plasmid A (CH1, His6 and Flag tags) and VL into Plasmid C (kappa CL); also called APFF / S28M
# B9: Fab VH1-46_IGHD6-6*01_IGHJ1*01 S102A/S103P/S104F/H111F (APFF) & L6_IGKJ1*01 S28R (Fab, V domains shown)
# VH: QVQLVQSGAEVKKPGASVKVSCKASGYTFTSYYMHWVRQAPGQGLEWMGIINPSGGSTSYAQKFQGRVTMTRDTSTSTVYMELSSLRSEDTAVYYCAREEYAPFSAEYFQFWGQGTLVTVSS
# VL: EIVLTQSPATLSLSPGERATLSCRASQRVSSYLAWYQQKPGQAPRLLIYDASNRATGIPARFSGSGSGTDFTLTISSLEPEDFAVYYCQQRSNWPPWTFGQGTKVEIKR
# notes: Fab; VH cloned into Plasmid A (CH1, His6 and Flag tags) and VL into Plasmid C (kappa CL); also called APFF / S28R
# How the values were obtained:
# [1] = target: T1, Recombinant Human DLL4 (delta-like protein 4) (human, UniProt Q9NR61 27-529); experiment: ELISA on coated DLL4, 100 nM Fab
# T1 construct: Bought recombinant human DLL4 (R&D Systems Cat#1506-D4/CF), coated on the plate; also called rHuman DLL4; Delta-like 4
# [2] = target: T1, Recombinant Human DLL4 (delta-like …); experiment: 96-well plate ECL (MSD) binding assay on coated DLL4, 10 nM Fab
# [3] = target: T2, rHuman P-Cadherin/Fc Chimera, CF (R&D Systems Cat#861-PC) (human, UniProt P22223 108-654); experiment: ECL multispot (MSD), antigen spotted, Fab in solution;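 note: purified Fab incubated 1 h at 20 °C on antigen-spotted wells, bound Fab detected via TAG detection antibody, ECL compared with each well's blank, ratio of 4 or above scored as hit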
# T2 construct: Bought recombinant Fc chimera; Fc part of the bought chimera not given
# [4] = target: T3, rHuman CD44/Fc Chimera, CF (R&D Systems Cat#3660-CD) (human, UniProt P16070 21-220); experiment: as above
# T3 construct: Bought recombinant Fc chimera; Fc part of the bought chimera not given
# [5] = target: T4, rHuman Notch-1/Fc Chimera, CF (R&D Systems Cat#3647-TK) (human, UniProt P46531 19-526); experiment: as above
# T4 construct: Bought recombinant Fc chimera; Fc part of the bought chimera not given
# [6] = target: T5, rHuman ErbB2/Fc Chimera, CF (R&D Systems Cat#1129-ER) (human, UniProt P04626 23-652); experiment: as above
# T5 construct: Bought recombinant Fc chimera; also called human epidermal growth factor 2 receptor; Fc part of the bought chimera not given
# [7] = target: T6, rHuman EGF R/Fc Chimera, CF (R&D Systems Cat#344-ER) (human, UniProt P00533 25-645); experiment: as above
# T6 construct: Bought recombinant Fc chimera; also called epidermal growth factor receptor; Fc part of the bought chimera not given
# [8] = target: T7, rHuman HGF R/c-MET/Fc Chimera, CF (R&D Systems Cat#358-MT/CF) (human, UniProt P08581 25-932); experiment: as above
# T7 construct: Bought recombinant Fc chimera; also called HGF R/Fc; hepatocyte growth factor receptor; Fc part of the bought chimera not given
# [9] = target: T8, rHuman Erythropoietin R/Fc Chimera, CF (R&D Systems Cat#963-ER) (human, UniProt P19235 25-250); experiment: as above
# T8 construct: Bought recombinant Fc chimera; also called EPO R; EPO R/Fc; Fc part of the bought chimera not given
# T8 sequence (looked up): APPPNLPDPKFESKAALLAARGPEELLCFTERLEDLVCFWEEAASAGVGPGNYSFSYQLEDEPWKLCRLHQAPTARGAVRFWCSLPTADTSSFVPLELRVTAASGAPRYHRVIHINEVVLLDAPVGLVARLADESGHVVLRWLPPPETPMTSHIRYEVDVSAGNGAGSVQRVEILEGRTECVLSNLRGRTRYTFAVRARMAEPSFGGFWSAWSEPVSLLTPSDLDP
# [10] = target: T9, rHuman IGF-1 sR, (IGF-1 sR), CF (R&D Systems Cat#391-GR) (human, UniProt P08069 31-932); experiment: as above
# T9 construct: Bought recombinant soluble receptor; The column head prints only 'IGF-1'; also called insulin-like growth factor-1 soluble receptor
# T7 sequence (P08581 25-932, change not shown): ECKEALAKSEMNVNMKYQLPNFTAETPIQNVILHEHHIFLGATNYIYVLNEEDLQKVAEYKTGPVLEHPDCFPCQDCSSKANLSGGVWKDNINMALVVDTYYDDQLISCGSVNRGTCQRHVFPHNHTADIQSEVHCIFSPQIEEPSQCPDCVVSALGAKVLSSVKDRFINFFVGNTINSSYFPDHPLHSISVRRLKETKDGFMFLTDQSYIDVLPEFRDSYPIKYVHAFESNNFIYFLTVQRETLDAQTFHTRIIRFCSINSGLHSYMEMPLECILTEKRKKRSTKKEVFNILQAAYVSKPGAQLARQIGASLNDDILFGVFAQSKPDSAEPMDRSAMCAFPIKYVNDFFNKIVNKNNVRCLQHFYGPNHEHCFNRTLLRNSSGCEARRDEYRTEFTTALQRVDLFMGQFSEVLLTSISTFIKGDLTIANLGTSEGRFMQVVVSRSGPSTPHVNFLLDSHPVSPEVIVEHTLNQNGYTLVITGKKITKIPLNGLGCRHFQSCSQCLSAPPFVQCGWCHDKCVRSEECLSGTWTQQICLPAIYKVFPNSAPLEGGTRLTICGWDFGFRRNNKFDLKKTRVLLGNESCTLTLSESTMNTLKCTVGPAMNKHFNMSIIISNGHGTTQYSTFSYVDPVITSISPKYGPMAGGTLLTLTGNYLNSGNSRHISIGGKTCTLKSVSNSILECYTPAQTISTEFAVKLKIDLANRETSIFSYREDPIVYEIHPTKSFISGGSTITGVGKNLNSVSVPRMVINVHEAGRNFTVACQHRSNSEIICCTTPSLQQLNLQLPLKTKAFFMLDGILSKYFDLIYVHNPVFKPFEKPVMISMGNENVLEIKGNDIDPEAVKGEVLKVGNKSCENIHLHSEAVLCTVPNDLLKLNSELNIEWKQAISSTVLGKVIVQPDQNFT
Binder,ELISA signal [1],ECL signal [2],ECL signal [3],ECL signal [4],ECL signal [5],ECL signal [6],ECL signal [7],ECL signal [8],ECL signal [9],ECL signal [10]
B1,0.07,41800,,,,,,,,
B2,0.02,26300,,,,,,,,
B3,0,22200,,,,,,,,
B4,,,447,399,243,363,325,406,440,331
B5,,,393,461,433,389,396,401,513,361
B6,,,447,513,482,381,435,346,517,355
B7,,,416,412,442,265,386,369,450,353
B8,,,410,313,382,271,320,305,360,341
B9,,,395,378,425,318,403,378,542,437
